Results: the supplement of paper PMC10567573

B1: SOAT1 (parent)
chain: KSAAMLAVFAVSAVVHEYALAVCL

Variants of: B1
Experiment: protein stability index of a GFP-peptide fusion (GPS, HEK-293T) (PSI 1-6); higher = more stable
Conditions: c terminus: a fixed tail appended
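Also: lentivirally expressed fusions sorted by FACS into six bins by GFP to DsRed ratio, PSI derived from sequencing read proportions per bin multiplied by bin number.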

Protein stability index of substitutions, site by site:
E17: T 3.21; G 1.39; F 2.73; Q 3.61; N 2.23; C 2.5
L20: N 4.2; W 3.92; I 1.49; T 2.31; K 2.58; S 2.62; C 2.93; E 3.95; Q 4.49
V8: W 3.01; I 1.62; Y 3.31; H 3.18; D 2.77; S 3.28; N 3.98; C 2.43; T 3.11; F 4.29; P 3.28; K 2.31; A 2.89
C23: S 3.48; Q 2.32; V 2.34; H 2.03; D 3.23; K 3.89; A 1.18; P 5.3; I 3.12
V14: D 3.41; H 2.91; W 4; L 3.6; F 1.91; N 2
H16: S 2.73; D 2.58; K 2.88; L 2.94; P 2.51; T 2.1
M5: S 4.27; T 3.55; L 3.74; A 2.63; G 3.1; D 3.48; P 3.6; R 4.56; E 3.88; W 2.56; F 2.22; Q 3.61; C 3.11; N 2.5
L24: P 2.62; A 3.7; Y 1.98; K 4.06; T 5.26; D 3.9; N 2.87; I 2.33; F 2.33
S12: Q 3.61; N 4.18; I 3.04; A 1.63; W 2.99; T 2.46; P 2.41; R 2.11
V15: G 2.69; Q 2.06; H 3.15; R 1.83
A21: N 3.11; S 4.49; I 1.6; L 3; F 3.01; M 3.82; E 3.42; D 3.15
A19: Q 2.44; K 2.39; R 3.46; Y 2.56; M 2.47; H 2.88; L 3.87
A3: D 2.23; Q 3.47; M 3.72; N 2.7; V 1.5; G 2.25; S 2.25; T 2.06; P 3.72; H 3.8; Y 2.83; W 1.96; I 3.19; K 2.88
Y18: F 4.1; P 2.23; W 3.5; M 1.85; Q 2.56; D 2.21
A13: Q 5.23; F 2.17; N 2.97; L 2.81; I 3.04; K 1.37; T 4.82; W 3.01
A10: T 1.83; P 3.61; V 3.03; G 3.62; S 3.12; H 3.74; Q 3.2; E 2.05
F9: P 1.92; S 2.3; V 1.47; D 4.42; W 3.01; R 2.15; A 1.73; M 2.35; Q 3.43; H 3.12
K1: W 3.4; E 3.54; D 4.34; Q 3.7; R 3.37; S 5.65; F 2.89; M 2.64; C 1.84; H 2.28; A 3.09; G 4.12; N 1.73; T 4.59; V 1.84
V22: C 3.03; R 4.03; H 2.82; I 4.34; T 3.08; A 3.06
V11: D 3.09
